The experiment addresses cross-linked CA 4Mu hexamer (HIV-1 (NL4-3 strain)). As to the kind of experiment: SPR; Biacore T100; minimally biotinylated WT CA or CA 4Mu hexamer captured on neutravidin on CM5 chips, CAI injected (100 µM and 3-fold dilutions); 50 mM sodium phosphate pH 7.5, 150 mM NaCl, 0.01% P20; steady-state one-site fit.

B1: CAI peptide (peptide)
peptide: ITFEDLLDYYGP
For the molecule B1, the Kd was greater than 100 µM.

Broadly, the Kd is the concentration at which binding is half-saturated. Higher therefore signals lower affinity.

Values taken from PMC3589475, “Large-Scale Functional Purification of Recombinant HIV-1 Capsid” (PLoS ONE, 2013).
